Measurements taken from the supplement of paper PMC10567573.

B1: SNX3 (parent)
chain: FLRQLPFRGDDGIFDDNFIEERKQ

Variants of: B1
Experiment: protein stability index of a GFP-peptide fusion (GPS, HEK-293T) (PSI 1-6); higher = more stable
Conditions: c terminus: a fixed tail appended
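Note: lentivirally expressed fusions sorted by FACS into six bins by GFP to DsRed ratio, PSI derived from sequencing read proportions per bin multiplied by bin number.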

Protein stability index, by site and new letter:
E21: H 2.64, C 2.85, D 4.12, S 2.83, N 3.01, W 2.1, A 3.12, V 2.02, K 3.33, Q 2.84, R 3.19, G 2.49, L 3.34, P 2.62, Y 2, I 2.96, M 2.81, T 3.13, F 2.39
F14: H 4.32, K 4.23, V 3.81, I 3.76, M 3.67, G 4.33, Y 2.84, L 3.56, T 3.86, E 4.56, W 3.38, Q 3.67, S 3.87, R 3.88
D15: M 3.28, F 2.74, K 2.96, W 2.89, Q 2.97, E 3.18, V 2.65, Y 2.43, H 3.06, A 3.45, T 3.94, G 3.12, R 2.71, S 3.15, I 2.53, L 3.28, N 2.75, C 2.99, P 3.04
I19: H 2.92, T 3.86, Y 3.15, Q 4.12, S 3.67, V 3.73, K 3.62, L 3, A 4.03, G 3.87, C 3.29, M 3.75, F 3.79, D 3.98, N 3.94, P 4.04, W 3.6
N17: K 3.98, G 4.12, I 2.7, A 2.54, V 2.97, M 2.79, T 3.22, D 3.83, H 3.41, L 2.28, F 2.58, Q 3.71, W 1.94, E 4.18, C 3.27, P 3.23, Y 2.38, R 2.61
K23: I 2.47, A 3.45, C 3.36, D 4.48, F 2.9, H 3.38
D16: F 2.56, P 3.4, N 2.88, Q 3, Y 2.8, A 2.62, M 2.95, G 3.18, C 3.05, R 3.23, V 3.45, H 3.6, W 2.73, T 3.06, K 3.86, L 2.91, S 3.53, I 3.19
F18: A 4.56, P 3.62, W 3.2, N 4.16, Y 3.27, V 3.67, Q 3.94, R 3.9, E 4.47, L 3.75, S 4.3, C 4.21, H 3.19, D 4.12, I 3.08, M 3.79, T 3.96, K 3.44
E20: K 3.74, N 2.92, W 2.17, F 2.88, M 2.79, R 3.24, G 3.17, Q 2.74, S 2.93, H 2.29, A 3.57, L 2.56, I 1.67, V 2.49, D 3.35, T 2.24, P 2.44, Y 2.84, C 3.23
R22: Y 2.31, F 3.44, D 3.44, S 2.81, V 3.12, T 3.77, I 2.78, K 3.81, Q 3.27, E 3.73, H 3.19, C 2.85, N 3.78, M 3.45, L 2.87, A 3.56, G 3.66, P 3, W 4.24
